Square brackets hold non-standard residues; d marks the D form. Ends that are not written are not given here. * marks the point of attachment. Biotin = O=C1N[C@H]2[C@H](CS[C@H]2CCCCC(=O)*)N1; pS = N[C@@H](COP(=O)(O)O)C(=O)O
Tests used:
[1] = target: T1, TDP-43 peptide consisting of amino acid sequence (SEQ ID NO: 5) (comprising pS375 and pS379) (human); test: SPR, antibody on chip, peptide analyte
T1 construct: also called target peptide
T1 peptide: GNNSY[pS]GSN[pS]GAAIG
Method: For antibodies ACI-8070-942.30D12-Ab1 and ACI-7071-809F12-Ab1-rec2 affinity was measured on Biacore 5200 instrument (Cytiva, Switzerland). The instrument was primed with running buffer HBS-P+ (10× HBS-P+ diluted to 1× in Milli-Q water) and flow-cells (Fc) 1-4 of a CM7 Series S sensor chip (Cytiva, 29147020) were activated with a fresh solution of EDC/NHS (Amine Coupling Kit type 2, BR100633, Cytiva) 1:1 ratio of both reagents at 10 μL/min for 420 sec and polyclonal rabbit anti-mouse IgG antibody (Cytiva, 29215281) was immobilized at […] in 10 mM sodium acetate pH 5.0 for 420 sec. Next, all Fc were quenched with 1 M ethanolamine (Cytiva, BR100633) for 420 sec. Immobilization levels were evaluated following ethanolamine quenching. A mouse IgG2a isotype control antibody and ACI-8070-942.30D12-Ab1 were captured on Fc 1 and Fc 2, respectively. Antibodies were diluted in 10 mM sodium acetate pH5.5 to a final concentration of 50 μg/mL and injected using the aim immobilization level functionality with a target of 10000 RU. […] Results obtained from single-cycle kinetics were double-referenced using the blank Fc 1 and buffer cycles and evaluated using the Biacore Insight Evaluation software (Cytiva). […]

[2] = target: T2, recombinant full length TDP-43 (SEQ ID NO: 1, FL TDP-43) (human, UniProt Q13148 1-414); test: pairing sandwich ELISA, antibody coated as capture, FL TDP-43 titrated
T2 construct: also called recombinant human soluble FL TDP-43; soluble human TDP-43
Method: (§1) The capacity of antibodies to bind phospho TDP-43 and TDP-43 was determined using a sandwich enzyme-linked immunosorbent assay (ELISA), where each antibody was paired with a second TDP-43 antibody previously characterized for TDP-43 binding and performance in sandwich immunoassays, ACI-7071-809F12-Ab1-rec2 (as described in WO2020234473) or ACI-7069-636E5-Ab1 (as described in WO2020234473). ELISA plates (Nunc™ Edge™ 96-Well, Non-Treated, Flat-Bottom Microplate, ThermoFisher Scientific, Denmark) were coated with 5 μg/mL of anti-phospho TDP-43 or anti-TDP-43 antibodies in carbo/bicarbonate buffer, overnight at 4° C. Plates were then washed with 0.05% Tween-20/PBS and blocked with 1% bovine serum albumin (BSA) in 0.05% Tween-20/PBS for 1 hour at 37° C. The plates were then washed again as described above.
Serial-dilutions of target peptide or protein were then added to the plates. For assays with anti-phospho TDP-43 antibodies, one of four peptide conjugates (peptides 11, 23, 28, or 29) each composed of two TDP-43 sequences, one phosphorylated and one non-phosphorylated, conjugated together with a Trioxatridecan-succinamic acid linker (Ttds, binding regions and sequences shown in Table 4) were used. Peptides 11, 23, 28, and 29 were added in a 10-fold serial dilution starting at 0.5 μM. For assays with TDP-43 antibodies only, recombinant full length TDP-43 (SEQ ID NO: 1, FL TDP-43) was diluted 3-fold from 21.9 pM. Plates were incubated for 1 hour at 37° C., and then washed. […] PEG-biotinylated phospho TDP-43 or TDP-43 antibodies were then respectively added to the wells and incubated for 1 hour at 37° C., after which the plates were washed. Horseradish peroxidase (HRP)-conjugated streptavidin (R&D Systems, Switzerland) was added at 1/200 dilution in 1% BSA and 0.05% Tween-20/PBS for 45 min at room temperature. […] The plate was read at 450 nm using an ELISA plate reader (Tecan, Switzerland).

[3] = target: T3, Peptide 28 (human, phosphoserine at pS403 and pS404 (human TDP-43 numbering, in the SEQ ID NO: 8 part); Trioxatridecan-succinamic acid (Ttds) linker between SEQ ID NO: 7 and SEQ ID NO: 8); test: SPR Biacore 8K, antibody captured, peptide analyte, single-cycle kinetics, 1:1 fit
T3 peptide: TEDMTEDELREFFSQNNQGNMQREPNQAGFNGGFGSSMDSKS
Method: (§2) Each cycle started with the non-covalent capture of the antibody which were diluted in running buffer to a final concentration of 5 μg/mL and injected for 120 sec with a flow rate of 10 μL/min. Antibodies being measured were captured in channels […], leaving Fc 1 as a blank Fc. Capture levels were evaluated following a 120 sec stabilization period after each antibody injection. ACI-7071-809F12-Ab1-rec2 was used as control, binding to the non-phosphorylated sequences represented in peptides 28 and 29.
(§3) Injections of peptides 28 or 29 were performed using single-cycle kinetics with increasing concentrations ranging from 1.2 to 100 nM prepared as a 3-fold serial dilution. Injections were performed with contact times of 300 sec/injection at a flow rate of 30 μL/min. A dissociation phase of 900 sec followed the final injection. Sensor surface was regenerated by two injection of 10 mM Glycine-HCl pH 1.7 at a flow rate of 10 μL/min for 60 sec, followed by a stabilization period of 120 sec. Results obtained from single-cycle kinetics were double-referenced using the blank Fc 1 and buffer cycles and evaluated by Biacore 8K evaluation software (Cytiva). The following kinetic parameters were obtained using the 1:1 binding fit model with variable Reflective Index (RI): association rate constant (ka), dissociation rate constant (kd), affinity constant (KD) and saturation response (Rmax).

[4] = target: T4, Peptide 29 (human, phosphoserine at pS409 and pS410 (human TDP-43 numbering, in the SEQ ID NO: 9 part); Trioxatridecan-succinamic acid (Ttds) linker between SEQ ID NO: 7 and SEQ ID NO: 9); test: as above
T4 peptide: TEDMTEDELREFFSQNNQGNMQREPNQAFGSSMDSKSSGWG
Method: as §2, §3

[5] = target: T5, biotinylated TDP-43 phospho peptide 401-413 (pS410) (human); test: capture ELISA, antibody on anti-mouse IgG, biotinylated peptide
T5 peptide: Biotin-FGSSMDSKS[pS]GWG
Method: (§4) Briefly, for capture detection in ELISA, wells of 96-well plates were coated with 5 μg/mL goat anti-mouse IgG (Fc gamma fragment specific), in carbonate buffer, overnight at 4° C. Plates were then washed with 0.05% Tween-20/PBS and blocked with 1% bovine serum albumin (BSA) in 0.05% Tween-20/PBS for 1 hour at 37° C. Phospho TDP-43 antibodies were then added at 5 μg/mL and incubated for 2 hours at 37° C. after which the plates were washed as described above. Biotinylated peptides representing each of the phospho sites, or non-phosphorylated, were incubated at 0.5 mM in 0.1% BSA and PBS for 1 hour at 37° C. after which the plates were washed. A streptavidin-HRP-conjugate (R&D Systems, Minnesota, United States) was added at 1/200 dilution in 0.05% Tween-20/1% BSA in PBS for 45 minutes in the dark at ambient temperature. After the final wash, plates were incubated with TMB (Sigma-Aldrich, Switzerland), an HRP substrate solution, and read at 405 nm using an ELISA plate reader (Tecan, Switzerland).

[6] = target: T6, biotinylated non-phosphorylated TDP-43 peptide 366-414 (human, biotin on the N-terminus); test: as above
T6 peptide: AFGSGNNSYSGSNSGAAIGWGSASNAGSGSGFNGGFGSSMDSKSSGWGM
Method: as §4

[7] = target: T7, biotinylated TDP-43 phospho peptide 401-413 (pS409 and pS410) (human); test: as above
T7 peptide: Biotin-FGSSMDSK[pS][pS]GWG
Method: as §4

[8] = target: T8, biotinylated TDP-43 phospho peptide 396-409 (pS404) (human); test: as above
T8 peptide: Biotin-GFNGGFGS[pS]MDSKS
Method: as §4

[9] = target: T9, biotinylated TDP-43 phospho peptide 401-413 (pS409) (human); test: as above
T9 peptide: Biotin-FGSSMDSK[pS]SGWG
Method: as §4

[10] = target: T10, biotinylated TDP-43 phospho peptide 396-409 (pS403 and pS404) (human, phosphoserine at 403 and 404 (SEQ ID NO: 1 numbering); biotin on the N-terminus); test: as above
T10 peptide: GFNGGFGSSMDSKS
Method: as §4

[11] = target: T11, biotinylated TDP-43 phospho peptide 396-409 (pS403) (human, phosphoserine at 403 (SEQ ID NO: 1 numbering); biotin on the N-terminus); test: as above
T11 peptide: GFNGGFGSSMDSKS
Method: as §4

[12] = target: T2, recombinant full length TDP-43 (SEQ ID …); test: SPR Biacore T200, FL TDP-43 immobilized, antibody analyte (avidity), 1:1 fit
Method: Binding avidity of ACI-7071-4665-B5-R3B-Ab2 to soluble FL TDP-43 was evaluated by determining the KD value using SPR (Biacore T200, GE Healthcare Life Sciences). Recombinant human soluble FL TDP-43 was immobilized on a CM5 Series S sensor chip (GE Healthcare Life Sciences) by amine coupling. Soluble TDP-43 was immobilized at a concentration of 5 μg/ml in 10 mM sodium acetate (pH 4.5) with a flow rate of 5 μl/min for 420 seconds resulting in an immobilization level of 150 RU. […] Antibodies were injected at a flow rate of […] for 90 seconds contact time and 700 seconds dissociation phase followed by three regenerations with 10 mM glycine-HCl (pH 1.7). For the optimized SPR protocol the antibodies were diluted 3-fold starting from 300 nM and dilute down to 1.2 nM and injected for 300 seconds at 30 μL/min followed by 600 seconds of dissociation. The chip surface was regenerated by one injection with 10 mM glycine-HCl (pH 1.7). Results obtained from binding kinetics were double referenced using a blank flow cell and a buffer cycle, and were evaluated with a global 1:1 fitting model with RI.

[13] = target: T2, recombinant full length TDP-43 (SEQ ID …); test: pairing sandwich ELISA, biotinylated antibody as detector, FL TDP-43 titrated
Method: as §1
Serial-dilutions of target peptide or protein were then added to the plates. For assays with anti-phospho TDP-43 antibodies, one of four peptide conjugates (peptides 11, 23, 28, or 29) each composed of two TDP-43 sequences, one phosphorylated and one non-phosphorylated, conjugated together with a Trioxatridecan-succinamic acid linker (Ttds, binding regions and sequences shown in Table 4) were used. Peptides 11, 23, 28, and 29 were added in a 10-fold serial dilution starting at 0.5 μM. […] The plate was read at 450 nm using an ELISA plate reader (Tecan, Switzerland).

B1: ACI-7071-809F12-Ab1-rec2 (as described in WO2020234473) (antibody, V domains shown)
VH: QVQLKESGPGLVAPSQSLSITCTVSGFSLNRNGVQWVRQPPGKGLEWLGVIWPGGSTNCNSALMSRLSISKDNSKSQVFLKMNSLHTDDTGIYYCARVGGNYVWDYNNYAWGQGTLVTVSA
VL: DVLMTQTPLSLPVSLGDQASISCRSSQNIVHSIGNTYLEWYLQKPGQSPKLLIYKVSNRFSGVPDRFSGSGSGTDFTLKISRVEAEDLGVYYCFQGSHVPYTFGGGTKLEIR
notes: also called 809F12D8
binding result [1]: no binding | EC50 [2]: 0.181 nM | Kd [3]: 4.5 nM | koff [3]: 0.00231 s⁻¹ | kon [3]: 514000 M⁻¹ s⁻¹ | Kd [4]: 7 nM | koff [4]: 0.00343 s⁻¹ | kon [4]: 490000 M⁻¹ s⁻¹

B2: ACI-7071-4665-B5-R3B-Ab2 (antibody, mouse IgG2a, V domains shown)
VH: QVQLKQSGPELVKPGASVKLSCKASGYTFTTYDINWVKQRPGQGPEWIGWIYPRVGNTKYNEKFKDKATLTVDTSSSTAYMELHSLTSEDSAVYFCASALTYWGQGTLVTVSA
VL: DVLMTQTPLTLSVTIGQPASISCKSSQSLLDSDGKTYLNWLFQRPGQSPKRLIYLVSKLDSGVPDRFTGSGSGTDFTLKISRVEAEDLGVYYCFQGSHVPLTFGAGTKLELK
notes: also called 4665-B5-R3B-B8; ACI-7071-4665-B5-Ab2
binding result [5]: no binding (tested: peptide at 0.5 mM) | binding result [6]: binds | binding result [7]: no binding (tested: peptide at 0.5 mM) | binding result [8]: no binding (tested: peptide at 0.5 mM) | binding result [9]: no binding (tested: peptide at 0.5 mM) | binding result [10]: no binding (tested: peptide at 0.5 mM) | binding result [11]: no binding (tested: peptide at 0.5 mM) | Kd [12]: 0.39 nM | koff [12]: 1.66e-05 s⁻¹ | kon [12]: 42900 M⁻¹ s⁻¹ | EC50 [13]: 0.181 nM | EC50 [2]: 0.072 nM

B3: ACI-8070-942.30D12-Ab1 (antibody, V domains shown)
VH: DVQLVESGGGLVQPGGSRKLSCEASGFTFSSIGMHWVRQAPEKGLEWVAYITSGSSTIYYADTVKGRFTISRDNPKNTLFLQMTSLRSEDTAIYYCAGSGPGTDYWGQGTTLTVSS
VL: DIKMTQSPSSMYASLGERVTITCKASQDINSYLSWFQQKPGKSPKTLIYRANRLVDGVPSRFSGSGSGQDYSLTISSLEYEDMGIYYCLQYDEFPLTFGAGTKLELK
notes: Mouse hybridoma antibody; also called 942.30D12F9; pS375/pS379 TDP-43 antibody
binding result [5]: no binding (tested: peptide at 0.5 mM) | binding result [6]: no binding (tested: peptide at 0.5 mM) | binding result [7]: no binding (tested: peptide at 0.5 mM) | binding result [8]: no binding (tested: peptide at 0.5 mM) | binding result [9]: no binding (tested: peptide at 0.5 mM) | binding result [10]: no binding (tested: peptide at 0.5 mM) | binding result [11]: no binding (tested: peptide at 0.5 mM)

— patent US20260043816A1 (AC IMMUNE, published 2026)
